Consider ten molecules from US20220372154A1 (APEXIGEN, published 2022).

One may read the EC50 as the concentration giving half of the maximal effect. A high value points to lower potency in that assay. The IC50 is the concentration at which inhibition is half-maximal. A higher IC50 goes with lower potency.

The target in test [1] is T1, cynomolgus TNFR2-His tagged protein (cynomolgus, UniProt A0A2K5VET2 132-366).
T1 construct: also called Cyno TNFR2; cynomolgus TNFR2 protein; not shown: His tag
T1 sequence: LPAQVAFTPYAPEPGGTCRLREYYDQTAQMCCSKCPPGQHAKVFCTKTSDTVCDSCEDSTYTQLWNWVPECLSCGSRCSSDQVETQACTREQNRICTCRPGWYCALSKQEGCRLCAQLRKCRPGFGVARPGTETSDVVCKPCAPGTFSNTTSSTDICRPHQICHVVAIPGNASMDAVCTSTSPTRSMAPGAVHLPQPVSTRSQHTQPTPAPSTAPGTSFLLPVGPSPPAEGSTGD
Briefly: ELISA on coated cynomolgus TNFR2-His. The protocol:
(§1) In FIGS. 3A-3B, human (3A) or cynomolgus (3B) TNFR2-His tagged protein was coated on 96-well ELISA plates at 1 μg/mL and incubated overnight at 4° C. Plates were washed and blocked using 1% BSA. Antibodies were added for 1 hour at room temperature (RT), washed, and detected using anti-Human HRP. Assay was developed using TMB substrate for 3-5 minutes. In FIG. 3C, FACS binding was performed on CHO cells that were engineered to express human TNFR2. Briefly, antibodies were incubated with 200,000 cells in MACS buffer for 1 hour followed by wash and detection using anti-human IgG BV421 for 20 minutes. Samples were analyzed using Cytoflex or MACSQuant flow cytometers. In FIG. 3D, ligand blocking ELISA was performed by coating plates with 1 ug/mL TNFR-Fc overnight at 4° C. Plates were washed, blocked and antibodies were incubated for 1 hr at RT. […] Assay was developed using TMB substrate for 5-7 minutes.

Test [2] concerns the target T2, soluble mouse TNFR2 (mouse, UniProt P25119 23-258, limits assumed).
T2 sequence (looked up): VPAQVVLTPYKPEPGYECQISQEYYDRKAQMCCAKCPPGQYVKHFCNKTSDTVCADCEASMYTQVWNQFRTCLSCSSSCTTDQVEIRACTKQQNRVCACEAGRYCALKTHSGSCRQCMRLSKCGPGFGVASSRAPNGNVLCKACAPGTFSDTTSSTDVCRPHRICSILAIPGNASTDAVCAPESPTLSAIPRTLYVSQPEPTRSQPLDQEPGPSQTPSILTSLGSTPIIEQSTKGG
Briefly: binding screen on soluble mouse TNFR2 (mouse cross-reactivity).

The target in test [3] is T3, human TNFR2 expressed on cells (human, UniProt P20333 23-461).
T3 construct: whole, on cells; also called hTNFR2 (cell); CHO-TNFR2
T3 sequence (looked up): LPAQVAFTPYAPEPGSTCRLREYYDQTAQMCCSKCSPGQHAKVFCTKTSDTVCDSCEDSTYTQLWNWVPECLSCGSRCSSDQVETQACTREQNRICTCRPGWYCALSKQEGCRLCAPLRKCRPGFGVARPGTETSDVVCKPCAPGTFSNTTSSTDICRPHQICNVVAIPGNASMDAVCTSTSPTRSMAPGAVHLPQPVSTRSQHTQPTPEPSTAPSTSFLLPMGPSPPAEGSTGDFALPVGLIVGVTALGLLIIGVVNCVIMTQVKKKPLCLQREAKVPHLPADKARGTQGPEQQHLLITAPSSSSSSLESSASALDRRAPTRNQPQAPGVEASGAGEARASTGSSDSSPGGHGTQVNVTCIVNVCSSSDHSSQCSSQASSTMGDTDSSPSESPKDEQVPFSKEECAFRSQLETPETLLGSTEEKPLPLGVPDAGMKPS
Briefly: flow cytometry on CHO cells expressing human TNFR2. On the procedure: as §1

Test [4] has as its target T4, TNFR-Fc (UniProt P20333 23-257, limits assumed).
T4 construct: Printed only as TNFR-Fc; not shown: Fc part
T4 sequence (looked up): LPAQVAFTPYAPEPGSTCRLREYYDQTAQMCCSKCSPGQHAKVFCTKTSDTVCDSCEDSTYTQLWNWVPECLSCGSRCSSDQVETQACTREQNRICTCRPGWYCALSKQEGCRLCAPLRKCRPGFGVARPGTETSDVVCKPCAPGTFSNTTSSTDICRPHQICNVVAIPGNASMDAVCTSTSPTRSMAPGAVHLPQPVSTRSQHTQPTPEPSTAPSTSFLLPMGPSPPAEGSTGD
Description: TNF-α blocking ELISA on coated TNFR-Fc. On the procedure: as §1

Test [5] deals with T5, human TNFR2-His tagged protein (soluble) (human, UniProt P20333 23-257).
T5 construct: also called hTNFR2 (soluble); soluble TNFR2-His; not shown: His tag
T5 sequence (looked up): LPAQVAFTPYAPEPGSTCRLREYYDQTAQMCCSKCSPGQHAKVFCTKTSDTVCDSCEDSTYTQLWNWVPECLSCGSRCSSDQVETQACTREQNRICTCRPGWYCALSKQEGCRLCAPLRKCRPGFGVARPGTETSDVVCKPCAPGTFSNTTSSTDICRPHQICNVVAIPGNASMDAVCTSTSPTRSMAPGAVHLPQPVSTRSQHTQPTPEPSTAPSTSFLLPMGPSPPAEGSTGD
Description: ELISA on coated human TNFR2-His. On the procedure:
as §1
For orientation: ELISA stands for enzyme-linked immunosorbent assay.

B1: chimeric antibody clone 42 (rab600_25_42) (antibody, V domains shown)
VH: QSLEESGGRLVTPGTPLTLTCTVSGIDLSTYAMIWVRQAPGKGLEYIGFIRPGGSAWYASWAKGRFTISKTSTTVDREITSPTTEDTATYFCATYDTYGYGDTRLWGPGTLVTVSS
VL: AYDMTQTPASVEVAVGGTVTIKCQASESIFSYLAWYQQKPGQRPKLLIYYASTLASGVPSRFKGSGSGTQFTLTISGVECADAATYYCQQGYDFSAVDNVFGGGTEVVVK
As to B1, the EC50 worked out at 0.184 nM in test [1], 0.091 nM in test [3] and 0.242 nM in test [5]. The binding result in test [2] is on record as “no binding”. The IC50 in test [4] stood at 11.2 nM.

B2: chimeric antibody clone 4 (rab600_23_4) (antibody, V domains shown)
VH: QSVEESGGRLVTPGTPLTLTCTVSGIDLSSYTMGWVRQAPGKGLEYIGFISSSGHTYYANWAKGRFTISKTSSTTVDLKMTSLTTEDTATYFCARDGGYGGYDYTGIFNLWGQGTLVTVSS
VL: DIVMTQTASPVSAAVGGTVTIKCQATESISSWLAWYQQKPGQPPKLLIYGASTLESGVPSRFSGSGSGTEFTLTISGVQCDDAATYYCQQGYIYTNVDNTFGGGTEVVVK
Regarding B2, the EC50 came out at 0.099 nM in test [1], 0.147 nM in test [3] and 0.094 nM in test [5]. Moreover, the binding result in test [2] is “no binding”. This molecule also registered an IC50 in test [4] of 2.74 nM.

B3: chimeric antibody clone 108 (taken as rab600_25_108) (antibody, V domains shown)
VH: QSVEESGGRLVTPGTPLTLTCKASGFSLSDYFMTWVRQAPGKGLEWIGIINTGGDSYYATWAKGRFTISKTSTTVDLKISSPTTEDTATYFCARDTGYGGYDYAGSFDPWGPGTLVTVSS
VL: AIKMTQTPASVSEPVGGTVTIKCQASENINSWLAWYQQKPGQPPKLLIYEASKLASGVPSRFKGSGSGTQFTLTISDLECADAATYYCQQGYIYIDVGNIFGGGTEVVVK
Turning to B3, the values for the EC50 in test [1], in test [3] and in test [5] were 0.327 nM, 0.18 nM and 0.256 nM, respectively. Moreover, the binding result in test [2] is listed as “no binding”. For the same molecule, the IC50 in test [4] came to 4.55 nM.

B4: chimeric antibody clone 127 (rab600_23_127) (antibody, V domains shown)
VH: QEQLEESGGDLVKPEGSLTLTCTASGFDFSVNAMCWVRQAPGKGPEWIAYISNADGSTHYASWVNGRFTISRSTSLNTVTLQMTRLTVSDTATYFCARAPYAGYTGYGYLNLWGPGTLVTVSS
VL: DVVMTQTPASVSGPVGGTVTIKCQASQNIDSDLAWYQQKPGQRPKLLIYDASKLASGVPSRFSGSGYGTEFTLTISGVQCEDAATYYCQYTYYINTYGGAFGGGTEVVVK
Turning to B4, the EC50 in test [1] is 60 nM; in test [3] it was 0.11 nM; in test [5], 0.313 nM. Also, in test [2], the binding result was “no binding”. Besides, the IC50 in test [4] was determined as 6.62 nM.

B5: chimeric antibody clone 102 (rab600_23_102) (antibody, V domains shown)
VH: QSVEESGGRLVTPGTPLTLTCTASGFSLSTYDMIWVRQAPGKGLEWIGYIWSDGITDYASWAKGRFTISKTSTTVDLKVTSPTTEDTATYFCARDVGYAGYGYYFDLWGQGTLVTVSS
VL: ALVMTQTPASVEVAVGGTVTIKCQASQSITNYLAWYRQKPGQPPKLLIYGASKLASGVPSRFSGSGSGTEYTLTISGVQCDDAATYYCQQGYTSSNVDNPFGGGTEVVVK
With B5, the EC50 in test [1] was 0.327 nM; in test [3] it was 0.0901 nM; in test [5], 0.207 nM. Moreover, in test [2], the binding result was “no binding”. The molecule further showed an IC50 in test [4] of 100 nM.

B6: chimeric antibody clone 107 (rab600_23_107) (antibody, V domains shown)
VH: QSVEESGGRLVTPGTPLTLTCTVSGFSLSSNAISWVRQAPGKGLEWIGIINTYDNTAYATWAKGRFSISRTSTTVDLKITSPATKDTATYFCARDVHNNVVPYYFDMWGQGTLVTVSS
VL: AYDMTQTPATVEVAVGGTVTINCQASQSISNLLAWYQQKPGQRPKLLIYDTSDLASGVPSRFSGSGSGTEYTLTITGVECADAATYYCQQGYSSSNIDNVFGGGTEVVVK
With B6, the EC50 in test [1] turned out to be 0.315 nM; in test [3] it was 0.485 nM; in test [5] it was 0.325 nM. In addition, in test [2], the binding result is recorded as “no binding”. In test [4], the IC50 was found to be 2.22 nM.

B7: chimeric antibody clone 57 (rab600_23_57) (antibody, V domains shown)
VH: QSVEESGGRLVTPGTPLTLTCTVSGFSLSSYAMGWVRQAPGKGLEWIGIIGSGGNTYYATWAKGRFTISRTSTTVDLRITSPTTEDTATYFCARDVGYGDYDALDLWGQGTLVTVSS
VL: DVVMTQTPSSVSEPVGGTVTIKCQASEEISSNLAWYQQKPGQPPKLLMYAASNLASGVSSRLKGSRSGTDYTLTISGVQCDDAATYFCQCTYIGSGYVVAFGGGTEVVVK
Consider B7, for which the figures for the EC50 in test [1], in test [3] and in test [5] were 0.057 nM, 0.073 nM and 0.067 nM, respectively. In addition, in test [2], the binding result is “no binding”. In test [4], the IC50 was 0.741 nM.

B8: chimeric antibody clone 37 (rab600_25_37) (antibody, V domains shown)
VH: QSVEESGGRLVTPGTPLILTCTVSGIDLSNYAMGWFRQAPGEGLEWIGSRRTDGITYYANWAEGRFTISRTSTTVDLEITSPTTEDTATYFCGRDVGGDGGWYFNLWGPGTLVTVSS
VL: AGDMTQTPASVEVAVGGTVTIKCQASQSINIYLAWYQQKPGQPPKLLIYDASKLASGVPSRFSGSGSGTEFTLTISDLECADAATYYCQQGINNIGFGGGTEVVVK
Regarding B8, the EC50 in test [1] was determined as 0.148 nM; in test [3], 0.1 nM; in test [5], 0.126 nM. Also, the binding result in test [2] is reported as “no binding”. The molecule also gave an IC50 in test [4] of 3.25 nM.

B9: chimeric antibody clone 11D7.1 (rab600_23_11D7.1) (antibody, V domains shown)
VH: QEQLEESGGGLVQPGGSLKLSCKASGFDFSRYYMSWVRQAPGKGLEWIGYIDPIFGNTYYASWVNGRFTISSHNAQNTLYLQLNNLTAADTATYFCARDGDAGYDGYGYGTDLWGPGTLVTVSS
VL: QVLTQTPSSVSEPVGGTVTINCQASENIYSGLAWYQQKPGQPPKLLIVSAFTLASGVPSRFKGSGTGTEFTLTISGVQCDDAATYYCQTYYYGSVTYFNAFGGGTEVVVK
notes: also called rab600_23_HD7.1
Regarding B9, the EC50 in test [1] turned out to be 0.0396 nM; in test [3], 0.17 nM; in test [5] it was 0.14 nM. In test [2], the binding result is recorded as “no binding”. This molecule came in with an IC50 in test [4] of 6.09 nM.

B10: chimeric antibody clone 92 (rab600_25_92) (antibody, V domains shown)
VH: QSVEESGGRLVKPDETLTLICTVSGFSLSSHHMIWVRQAPGEGLEGIGIIDAGSGSTYYASWAKGRFTISRTSTTVDLKIASPTTEDTATYFCARGGLTESLGTYFDLWGPGTLVTVSS
VL: DIVMTQTPASVEAAVGGTVTIKCQASESIDSGLAWYQQKPGQRPKLLIYDSSTLASGVPSRFKGSGSGTDFTLTISDLECADAATYYCQSNYDTGSSVYDWGSFGGGTEVVVK
For the molecule B10, the EC50 in test [1] amounted to 0.191 nM; in test [3] it was 0.086 nM; in test [5], 0.131 nM. Also, in test [2], the binding result is recorded as “no binding”. Besides, in test [4], it took 3.06 nM to reach half-maximal inhibition (IC50).
